Test results as given in patent publication US20240376226A1.

molecular target: neutravidin (UniProt P02701); assay: phage ELISA, neutravidin alone
Sequence (P02701 25-152): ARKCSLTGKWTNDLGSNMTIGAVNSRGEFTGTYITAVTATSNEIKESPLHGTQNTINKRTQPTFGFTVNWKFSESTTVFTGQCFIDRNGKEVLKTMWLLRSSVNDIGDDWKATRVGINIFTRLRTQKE

Row | Binder | NAv bkgd
1 | GGLCPINDWEPQDICW (peptide, not shown: large carriers) [Phage clone J467F08 displaying Peptide-27] | 0.062
2 | GGLCMIGDWLPGDVCL (peptide, not shown: large carriers) [Phage clone J467D04 displaying Peptide-28] | 0.058
3 | GGIQCHDPDLPSPCYI (peptide, not shown: large carriers) [Phage clone J465E03 displaying Peptide-21] | 0.052
4 | GGMSDCGDPGVEICTH (peptide, not shown: large carriers) [Phage clone J457A04 displaying Peptide-20] | 0.092
5 | GGLECFDPEIPEAFCI (peptide, not shown: large carriers) [Phage clone J466C07 displaying Peptide-24] | 0.053
6 | GGNCHDPDIPAYVLCS (peptide, not shown: large carriers) [Phage clone J479B08 displaying Peptide-26] | 0.084
7 | GGQGCGTIADPEPHCW (peptide, not shown: large carriers) [Phage clone J466C02 displaying Peptide-25] | 0.061
8 | GGEWCLFDPDVPTCQD (peptide, not shown: large carriers) [Phage clone J465F09 displaying Peptide-22] | 0.051
9 | GGLGCNDIDPGEQCIV (peptide, not shown: large carriers) [Phage clone J465D07 displaying Peptide-23] | 0.055
10 | GGDSVCADPEVPICEI (peptide, not shown: large carriers) [Phage clone J476C07 displaying Peptide-19] | 0.051
